Measured values taken from patent publication US7557181B2, “Pan-HER antagonists and methods of use” (Molecular Logix, Inc., priority 2005, dated 2009).

Assays:
Assay type in all cases: cell-based
[1] = system: HER5 cells (mouse fibroblast cells that overexpress human EGFR); assay: HER5 cell proliferation stimulation assay (WST-1); settings: serum-free, 48 hour proliferation period, FIG. 3
Experimental: Hung (MD Anderson Cancer Center). Stock cultures of HER5 were propagated in D-MEM/F12 medium containing 10% fetal bovine serum, 100 units/ml of penicillin and 100 ug/ml of streptomycin in a water-jacketed incubator at 37° C. in a humidified 5% CO2 atmosphere. For HER5 proliferation assays, the cells were changed into DMEM/F12 without serum for 24 hours. Cells were then trypsinized and suspended at 1E5 cells/ml. […] Fifty microliters of cell suspension (5000 cells) were added to appropriate wells bringing the total volume to 100 ul at the desired concentrations. Plates were incubated for a 48 hour proliferation period. Cell proliferation was determined by addition of 10 ul/well of WST-1 Cell Proliferation Reagent (Roche Applied Sciences, Indianapolis, Ind.) for the last three hours of the proliferation period. WST-1 is a tetrazolium salt that is cleaved to formazan dye by mitochondrial dehydrogenases in viable cells. The amount of formazan was measured at 450 nm using a microplate reader (Dynex Technologies) with MRX Revelation software.

EGFR = biological target: T1, EGFR (Homo sapiens, UniProt P00533); assay: Autophosphorylation of EGFR in A431 cells; settings: epithelial cancer cell line, FIG. 2
T1 construct: Autophosphorylation of EGFR in A431 cells, an epithelial cancer cell line; endogenous in cells; host or cells: A431 cells

[2] = system: MCF-7 cells (human breast cancer cell line that express HER2 and HER3); assay: MCF-7 cell proliferation stimulation assay (WST-1); settings: serum-free, 72 hours, FIG. 4
Experimental: MCF-7 cells were obtained from the American Type Culture Collection (ATCC). Stock cultures of MCF-7 were maintained in Eagle's MEM supplemented with 1% ITS-X (Invitrogen) and 10% fetal bovine serum. For proliferation assays, MCF-7 cells were transferred to serum-free medium (SFM) for 24 hours and then trypsinized and suspended at 1E5 cells/mL in SFM. Fifty microliters of cell suspension (5000 cells) were plated per well in 96 well microtiter plates. Serial dilutions of HER ligands or mutant proteins were prepared at twice the final concentration in SFM and 50 ul was added to wells, bringing the final volume to 100 ul at the desired final concentration. Plates were incubated for 72 hours at 37 C in a humidified 5% CO2 atmosphere. Cell proliferation was determined by addition of 10 ul/well of WST-1 Cell Proliferation Reagent (Roche Applied Sciences, Indianapolis, Ind.) for the last three hours of the proliferation period.

Row | stimulation of autophosphorylation of EGFR (EGFR) | Molecule | stimulation of HER5 cells (proliferation) [1] | stimulation of MCF-7 cells (proliferation) [2]
1 | stimulated | BiRegulin: chimeric EGF homolog, amino terminal residues (NSDSE) of EGF replaced with corresponding residues of HRGβ1 (SHLVK) (protein) HHHHHHIEGRSHLVKCPLSHDGYCLHDGVCMYIEALDKYACNCVVGYIGERCQYRDLKWWELR | can be stimulated | can be stimulated
2 | does not stimulate autophosphorylation | BiRV35EG39L: BiRegulin with glycine 39 replaced by leucine and valine 35 replaced with glutamate (protein) HHHHHHIEGRSHLVKCPLSHDGYCLHDGVCMYIEALDKYACNCVEGYILERCQYRDLKWWELR | Neither cell line is stimulated | Neither cell line is stimulated
3 | – | heregulin (protein) SHLVKCAEKEKTFCVNGGECFMVKDLSNPSRYLCKCPNEFTGDRCQNYVMASFYKHLGIEFMEAEELY | – | can be stimulated
